In patent US20220380445A1 (Ablynx, published 2022):
Where a chain is given by its changes, count along the chain named. In names and notes the source's numbering stands.

B1: Reference A+L11V+V89A+T110K+C-terminal alanine, N-terminal HIS6 tag (VHH)
VHH: HHHHHHEVQLVESGGGVVQPGGSLRLSCAASGFTFRSFGMSWVRQAPGKGPEWVSSISGSGSDTLYADSVKGRFTISRDNSKNTLYLQMNSLRPEDTAAYYCTIGGSLSRSSQGTLVKVSSA
B2: Reference A+L11V+V89L+S104G+C-terminal alanine, N-terminal HIS6 tag (VHH)
VHH: EVQLVESGGGVVQPGGSLRLSCAASGFTFRSFGMSWVRQAPGKGPEWVSSISGSGSDTLYADSVKGRFTISRDNSKNTLYLQMNSLRPEDTALYYCTIGGSLSRSGQGTLVTVSS
B3: Reference A+L11V+V89A+C-terminal alanine, N-terminal HIS6 tag (VHH)
VHH: B2 VHH with L93A, G106S
B4: Reference A+L11V+V89S+C-terminal alanine, N-terminal HIS6 tag (VHH)
VHH: B2 VHH with L93S, G106S
B5: Reference A+L11V+S31D+V89L+C-terminal alanine, N-terminal HIS6 tag (VHH)
VHH: B2 VHH with S31D, G106S
B6: Reference A+L11V+R30T+V89L+C-terminal alanine, N-terminal HIS6 tag (VHH)
VHH: B2 VHH with R30T, G106S
B7: Reference A+L11V+V89T+C-terminal alanine, N-terminal HIS6 tag (VHH)
VHH: B2 VHH with L93T, G106S
B8: Reference A+L11V+V89T+S104T+C-terminal alanine, N-terminal HIS6 tag (VHH)
VHH: B2 VHH with L93T, G106T
B9: Reference A+L11V+V89T+T110K+C-terminal alanine, N-terminal HIS6 tag (VHH)
VHH: B1 VHH with A99T
B10: SEQ ID NO 10 (VHH)
VHH: B2 VHH with G106S
notes: also called R at position 30
B11: SEQ ID NO 129 (VHH)
VHH: B2 VHH with E1D, R30T, L93T
notes: also called T at position 30
B12: SEQ ID NO 127 (VHH)
VHH: B2 VHH with E1D, R30T
notes: also called T at position 30
B13: SEQ ID NO 145 (VHH)
VHH: B2 VHH with E1D, R30T, L93A
notes: also called T at position 30
B14: Reference A+L11V+V89N+T110K+C-terminal alanine, N-terminal HIS6 tag (VHH)
VHH: B1 VHH with A99N
B15: Reference A+L11V+V89N+C-terminal alanine, N-terminal HIS6 tag (VHH)
VHH: B2 VHH with L93N, G106S
B16: Reference A+L11V+V89S+T110K+C-terminal alanine, N-terminal HIS6 tag (VHH)
VHH: B1 VHH with A99S
B17: Reference A+L11V+V89L+S101G+C-terminal alanine, N-terminal HIS6 tag (VHH)
VHH: B2 VHH with S103G, G106S
B18: Reference A+L11V+V89L+S101E+C-terminal alanine, N-terminal HIS6 tag (VHH)
VHH: B2 VHH with S103E, G106S
B19: Reference A+L11V+V89L+S104A+C-terminal alanine, N-terminal HIS6 tag (VHH)
VHH: B2 VHH with G106A
B20: Reference A+L11V+V89L+R102D+C-terminal alanine, N-terminal HIS6 tag (VHH)
VHH: B2 VHH with R104D, G106S
B21: Reference A+L11V+V89L+S101H+C-terminal alanine, N-terminal HIS6 tag (VHH)
VHH: B2 VHH with S103H, G106S

Molecular target: T1, human serum albumin (human, UniProt P02768 25-609)
T1 construct: Amine-coupled to the chip (EDC/NHS); also called HSA
Assay: ProteOn SPR; Nanobody on immobilized human serum albumin; Langmuir simultaneous ka/kd fit
Description: (§1) PBS/Tween (phosphate buffered saline, pH7.4, 0.005% Tween20) was used as running buffer and the experiments were performed at 25° C. […] After immobilization, surfaces were deactivated with ethanolamine HCl (flow rate 30 μl/min). Nanobodies were injected for 2 minutes at 45 μl/min over the HSA surface to render a Nanobody capture level of approximately 200 RU. […] After each cycle (i.e. before a new Nanobody capture and blood sample injection step) the HSA surfaces were regenerated with a 2 minute injection of HCl (100 mM) at 45 μl/min. Sensorgram processing and data analysis was performed with ProteOn Manager 3.1.0 (Bio-Rad Laboratories, Inc.).
(§2) Also, for the serum albumin binders tested, a kinetic analysis was performed of the binding interaction with the immobilized serum albumin (Langmuir, simultaneous ka/kd model).

T1 sequence (P02768 25-609 limits assumed): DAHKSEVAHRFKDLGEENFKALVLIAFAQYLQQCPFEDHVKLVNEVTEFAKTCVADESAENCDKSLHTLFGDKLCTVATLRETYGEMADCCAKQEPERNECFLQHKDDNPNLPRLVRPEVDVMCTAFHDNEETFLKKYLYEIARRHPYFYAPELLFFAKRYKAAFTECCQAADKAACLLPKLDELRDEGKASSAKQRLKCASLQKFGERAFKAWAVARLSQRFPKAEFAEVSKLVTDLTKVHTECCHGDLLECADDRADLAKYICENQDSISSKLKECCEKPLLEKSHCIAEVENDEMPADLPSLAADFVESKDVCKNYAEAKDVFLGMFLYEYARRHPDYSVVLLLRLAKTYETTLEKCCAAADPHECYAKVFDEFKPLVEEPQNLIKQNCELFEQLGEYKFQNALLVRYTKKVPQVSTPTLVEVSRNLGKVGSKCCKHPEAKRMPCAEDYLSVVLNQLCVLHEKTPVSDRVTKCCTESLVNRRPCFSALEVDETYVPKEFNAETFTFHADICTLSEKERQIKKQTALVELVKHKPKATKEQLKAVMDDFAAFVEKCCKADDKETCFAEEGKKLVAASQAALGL

Binder | Kd [nM] | koff [s⁻¹] | kon [M⁻¹ s⁻¹]
B1 | 6.5 | 0.0018 | 270000
B2 | 8.3 | 0.0022 | 260000
B3 | 7.3 | 0.0019 | 260000

Molecular target: T1, human serum albumin
Assay: as above
Remark: another data set of the same source
Description: as §1, §2

Binder | Kd [nM] | koff [s⁻¹] | kon [M⁻¹ s⁻¹]
B4 | 11 | 0.0017 | 160000
B5 | 20 | 0.0032 | 160000
B6 | 22 | 0.0026 | 120000

Molecular target: T1, human serum albumin
Assay: as above
Remark: another data set of the same source
Description: as §1, §2

Binder | Kd [nM] | koff [s⁻¹] | kon [M⁻¹ s⁻¹]
B7 | 7.3 | 0.0023 | 310000
B8 | 12 | 0.0033 | 280000
B9 | 7.6 | 0.0021 | 280000

Molecular target: mouse serum albumin (mouse, UniProt P07724 25-608)
Assay: ProteOn kinetic analysis

Binder | Kd [nM] | koff [s⁻¹] | kon [M⁻¹ s⁻¹]
B10 | 6.8 | 0.0073 | 1.1e+06
B11 | 27 | 0.021 | 770000
B12 | 21 | 0.017 | 820000
B13 | 27 | 0.02 | 750000

Molecular target: T1, human serum albumin
Assay: ProteOn kinetic analysis

Binder | Kd [nM] | koff [s⁻¹] | kon [M⁻¹ s⁻¹]
B10 | 0.83 | 0.00084 | 1e+06
B11 | 2.1 | 0.0015 | 710000
B12 | 2 | 0.0014 | 730000
B13 | 2.1 | 0.0014 | 690000

Molecular target: cyno serum albumin (cyno, UniProt A2V9Z4 25-608)
Assay: ProteOn kinetic analysis

Sequence of cyno serum albumin (A2V9Z4 25-608 limits assumed): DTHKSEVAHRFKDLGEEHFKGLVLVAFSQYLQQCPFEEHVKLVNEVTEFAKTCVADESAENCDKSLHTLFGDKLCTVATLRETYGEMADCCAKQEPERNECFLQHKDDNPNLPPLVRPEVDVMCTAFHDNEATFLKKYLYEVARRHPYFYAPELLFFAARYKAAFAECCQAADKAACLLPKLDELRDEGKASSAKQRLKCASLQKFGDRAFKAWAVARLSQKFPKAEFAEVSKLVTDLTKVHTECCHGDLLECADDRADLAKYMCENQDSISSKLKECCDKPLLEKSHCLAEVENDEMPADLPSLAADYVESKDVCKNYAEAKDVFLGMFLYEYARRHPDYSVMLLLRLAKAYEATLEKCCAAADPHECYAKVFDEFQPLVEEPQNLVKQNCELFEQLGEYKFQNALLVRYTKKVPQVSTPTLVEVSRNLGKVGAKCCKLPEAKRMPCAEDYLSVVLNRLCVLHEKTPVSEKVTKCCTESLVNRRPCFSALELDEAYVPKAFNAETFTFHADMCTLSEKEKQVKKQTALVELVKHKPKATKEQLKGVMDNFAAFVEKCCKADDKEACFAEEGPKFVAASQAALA

Binder | Kd [nM] | koff [s⁻¹] | kon [M⁻¹ s⁻¹]
B10 | 0.89 | 0.00081 | 910000
B11 | 2.4 | 0.0015 | 640000
B12 | 2.1 | 0.0014 | 690000
B13 | 2.3 | 0.0015 | 640000

Molecular target: rat serum albumin (rat, UniProt P02770 25-608)
Assay: ProteOn kinetic analysis

Sequence of rat serum albumin (P02770 25-608 limits assumed): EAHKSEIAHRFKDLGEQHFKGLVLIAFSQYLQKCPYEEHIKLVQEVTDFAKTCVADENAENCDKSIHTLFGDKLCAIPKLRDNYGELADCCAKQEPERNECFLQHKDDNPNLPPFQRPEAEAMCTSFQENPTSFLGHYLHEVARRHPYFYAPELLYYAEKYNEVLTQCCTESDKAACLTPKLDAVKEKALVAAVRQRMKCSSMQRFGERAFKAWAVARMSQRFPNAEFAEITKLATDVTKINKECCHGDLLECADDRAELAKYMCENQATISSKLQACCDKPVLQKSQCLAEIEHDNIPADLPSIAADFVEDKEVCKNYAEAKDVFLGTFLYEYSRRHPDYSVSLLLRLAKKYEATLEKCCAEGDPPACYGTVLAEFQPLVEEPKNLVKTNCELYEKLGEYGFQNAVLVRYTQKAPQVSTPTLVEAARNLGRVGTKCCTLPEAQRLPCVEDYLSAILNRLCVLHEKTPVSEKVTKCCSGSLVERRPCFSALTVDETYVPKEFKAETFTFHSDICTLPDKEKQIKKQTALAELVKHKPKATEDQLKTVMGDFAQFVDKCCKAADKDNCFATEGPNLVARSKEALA

Binder | Kd [nM] | koff [s⁻¹] | kon [M⁻¹ s⁻¹]
B10 | 180 | 0.13 | 710000
B11 | 490 | 0.21 | 430000
B12 | 490 | 0.22 | 450000
B13 | 540 | 0.23 | 420000

Molecular target: guinea pig serum albumin (guinea pig)
Assay: ProteOn kinetic analysis

Binder | Kd [nM] | koff [s⁻¹] | kon [M⁻¹ s⁻¹]
B10 | 5.1 | 0.0063 | 1.2e+06
B11 | 13 | 0.0098 | 790000
B12 | 8.6 | 0.0075 | 870000
B13 | 13 | 0.01 | 790000

Molecular target: T1, human serum albumin
Assay: ProteOn SPR; Nanobody on immobilized human serum albumin; Langmuir simultaneous ka/kd fit
Remark: another data set of the same source
Description: as §1, §2

Binder | Kd [nM] | koff [s⁻¹] | kon [M⁻¹ s⁻¹]
B14 | 7.3 | 0.0016 | 220000
B15 | 3.1 | 0.0036 | 1.2e+06
B16 | 7.2 | 0.0015 | 200000

Molecular target: T1, human serum albumin
Assay: as above
Remark: another data set of the same source
Description: as §1, §2

Binder | Kd [nM] | koff [s⁻¹] | kon [M⁻¹ s⁻¹]
B17 | 16 | 0.0017 | 110000
B18 | 30 | 0.0044 | 150000
B19 | 30 | 0.0022 | 72000

Molecular target: T1, human serum albumin
Assay: as above
Remark: another data set of the same source
Description: as §1, §2

Binder | Kd [nM] | koff [s⁻¹] | kon [M⁻¹ s⁻¹]
B20 | 82 | 0.0051 | 62000
B21 | 24 | 0.0026 | 110000
